T1: Dcn1 potentiating neddylation (PONY) domain, Dcn1^P (budding yeast, UniProt Q12395 70-269)
T1 sequence (looked up): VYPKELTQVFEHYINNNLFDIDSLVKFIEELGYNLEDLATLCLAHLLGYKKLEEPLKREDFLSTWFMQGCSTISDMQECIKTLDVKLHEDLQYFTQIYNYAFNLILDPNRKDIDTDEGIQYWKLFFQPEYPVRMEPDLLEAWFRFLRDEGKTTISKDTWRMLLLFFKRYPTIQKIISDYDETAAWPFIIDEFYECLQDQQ

B1: Dcn1 potentiating neddylation (PONY) domain, Dcn1^P (domain or fragment)
chain: T1 sequence (looked up)
B2: full-length Dcn1 (natural protein, budding yeast, UniProt Q12395 1-269, looked up)
chain: MSNNKIKRKDASPEQEAIESFTSLTKCDPKVSRKYLQRNHWNINYALNDYYDKEIGTFTDEVSTVAHPPVYPKELTQVFEHYINNNLFDIDSLVKFIEELGYNLEDLATLCLAHLLGYKKLEEPLKREDFLSTWFMQGCSTISDMQECIKTLDVKLHEDLQYFTQIYNYAFNLILDPNRKDIDTDEGIQYWKLFFQPEYPVRMEPDLLEAWFRFLRDEGKTTISKDTWRMLLLFFKRYPTIQKIISDYDETAAWPFIIDEFYECLQDQQ
B3: isolated Cdc53 WHB subdomain (Cdc53^WHB) (domain or fragment, budding yeast, UniProt Q12018 730-815, looked up)
chain: NKRLTEDERIEKELNTERQIFLEACIVRIMKAKRNLPHTTLVNECIAQSHQRFNAKVSMVKRAIDSLIQKGYLQRGDDGESYAYLA

Columns and labels:
Test in all cases: ITC
[1] = molecular target: Cdc53^C+-Hrt1^ΔR complex (budding yeast)
[2] = molecular target: Cdc53^C+-Hrt1 complex (budding yeast) (UniProt Q12018)
[3] = molecular target: B3
[4] = molecular target: T1, Dcn1 potentiating neddylation (PONY) …

| Binder | stoichiometry N [1] | stoichiometry N [2] | stoichiometry N [3] | Kd [4] |
| --- | --- | --- | --- | --- |
| B1 | 1 |  |  |  |
| B2 | 1 | 1 | 1 |  |
| B3 |  |  |  | 227 nM |

Reference: paper PMC3001161 (Molecular cell, 2010)
